Data taken from the RNAGym collection of RNA variant scans (doi:10.1073/pnas.2313332121).

B1: TPR t1 (parent)
chain: GACCAAUCUGCCCUCAGAGCUCGAGAACAUCUUCGGAUGCAGAGGAGGCAGGCUUCGGUGGCGCGAUAGCGCCAACGUCCUCAACCUCCAAUGCAUCCCACCACAUGAUGAUGCCUGAAGAGCCUUGGUUUUUUG

Variants of: B1
Assay: polymerase ribozyme fitness, log enrichment relative to wild type (log ratio); higher = more active; in vitro selection for triplet polymerase activity
In short: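 Both subunits of a heterodimeric triplet polymerase ribozyme were given their own mutant library, built by PCR and transcribed. Each library was annealed with a biotinylated primer, the partner subunit and triplets, incubated frozen at −7 °C, and its extended constructs gel-excised, captured on streptavidin beads and amplified by RT-PCR, all in one round done in triplicate. Fitness is the logarithm of genotype enrichment relative to wild-type enrichment, with replicates averaged by inverse-variance weighting. That logarithm is base 2, and Illumina-sequenced genotypes needed ≥10 input reads and ≥1 read per output.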

Variant | polymerase ribozyme fitness (log ratio)
G35U A74G C89U C115A | -6.17
U33A C88G | -4.9
G36A G61U C72G G77A C82A C98U | -6
U33G G48U G60A C97G G120A | -7.27
U33A G36U G69U C99G | -5.44
G36A U55G G120C | 0.249
G36A G52A G63U | -3.22
U33G G93A A100U C114U | -7.04
G35U G69U | -0.908
G36A C85A G117A | -3.37
C34A C114G | -5.41
C34A U55C G60A U129G | -4.44
C34A C79U | -2.71
C34A C79G | -6.59
U32G G39A U106C | -4.98
C34G C73U | -5.17
G35A C102U | -5.08
U32G C97G A119G | -6.08
C34U C56A C114U | -4.57
C34A C97G | -4.18
U32C A46G U109A | -3.86

Variant | polymerase ribozyme fitness (log ratio)
U33C C79G A111U | -7.17
G36C C49U A74G C101G A119U | -3.8
G35U G69A A105C U106A G120U | -6.28
U33G G35U G69U U78G A91C C114G G128C U132A G135A | -5.79
G36C C64U | -1.65
U32C C56U C72U A111U | -3.66
U32C G60A C97A C124U U131A | -4.71
G36C G44A G71U A75G C89A | -4.65
C34G U112A | -4.47
C34G A46U | -6.06
C31U G69U C73U A100U | -3.8
C34A G71C U129C | -5.07
C34A G52U C53U A90U U106A | -4.54
U32C G69C C80U C101U C102U | -5.78
U33G C72A C85G A90G G120C U129G | -7.02
G35A C114G | -5.64
U33G G52C C56A G61A C79U A91G C123G U131G | -7.1
U32A C56G | -3.79
U32A C56A | -3.44
U32A C40U G63A A83G G120C | -7.22
C34A A84G A121G | -2.74

Variant | polymerase ribozyme fitness (log ratio)
G36C C72A G122A | -1.22
G35C C73A | -5.42
U33A A37C | -4.7
U32C A41C | -1.24
U33A G45A G63C | -5.54
G35U C64U A90U U106A C115G G117A A119G | -6.88
U32C A105G U109G G117A | -7.37
C34A U55A C88A | -3.93
U32C C70G A74C | -5.82
U32C G48A G52U A66U C114A | -5.75
C34U A41G C56U G63C C89A A95U C104G G110A | -5.19
G36A U81A | -1.3
C34A G69C A111G | -5.23
G36A A68G | -3.57
C34A G61A | -2.98
G35C G63C | -5.87
C34U G47A C72U U78A C115A | -6.19
C34A C72A C102U | -2.07
G35C C72U | -4.96
C34U C123U | -2.86
C34A C40U C85A | -5.11

Variant | polymerase ribozyme fitness (log ratio)
G36A C114A | -2.96
G36A U96G | -1.67
C34A A43U | -5.98
C34G G44U C62U G77A G110C | -6.64
G36C C102U | -3.5
G35A G36U U112A | -5.59
G35A G122U C123G | -4
U32A C40U C101A | -4.24
G36A U106A C124A U129G | 0.262
C31U C123G G127A | -4.45
G36C C76G | -1.25
U33A A66G C123A | -6.2
G35A C88U A121U | -1.91
C34G G107A | -7.98
C34A C49G C76G U96A C124U U131G U134C | -2.1
U32G C82U A121C | -6.01
U33A U87A | -4.12
C34G U38A G48A C53U A111U | -6
G35A G48U | -3.78
C34A C64U | -2.37
